Data reported in patent US20250011363A1, “OPTIMIZED SHORTENED PEPTIDE THAT BINDS TO ACETYLCHOLINE RECEPTOR, AND USE THEREOF” (SKINMED CO., LTD., priority 2021, published 2025).

target: acetylcholine receptor; assay: SPR, AchR immobilized on chip, peptide at 10 uM

Row | Binder | Binding affinity [RU]
1 | KGVCRR [6mer-2-16] | 121
2 | RQFYKK [6mer-2-30] | 139
3 | RVQTRR [6mer-2-20] | 137
4 | KQLCKR [6mer-2-41] | 142
5 | KLICRK [6mer-2-9] | 139
6 | KQVRKR [6mer-2-15] | 133
7 | KLYLKR [6mer-2-46] | 153
8 | RSILRR [6mer-2-18] | 124
9 | RRLCRK [6mer-2-32] | 139
10 | RSFSKK [6mer-2-19] | 135
11 | KSVRRK [6mer-2-44] | 145
12 | KLQSRR [6mer-2-47] | 148
13 | KQVQKR [6mer-2-25] | 148
14 | KSICRR [6mer-2-6] | 122
15 | KRQRKK [6mer-2-52] | 136
16 | RWVTRR [6mer-2-17] | 142
17 | RVITKR [6mer-2-43] | 146
18 | RSYYKR [6mer-2-38] | 136
19 | RQYTRK [6mer-2-13] | 123

Row | Binder | Binding affinity [RU]
20 | KVFRRK [6mer-2-34] | 124
21 | KVFSKK [6mer-2-10] | 124
22 | RRLQKK [6mer-2-36] | 131
23 | RLFYKK [6mer-2-55] | 125
24 | RRYRKK [6mer-2-40] | 153
25 | RWRRKK [6mer-2-26] | 121
26 | RLFTRK [6mer-2-21] | 141
27 | RWRYRK [6mer-2-39] | 137
28 | RSQSKR [6mer-2-50] | 125
29 | KLLYRK [6mer-2-37] | 148
30 | KQFLKK [6mer-2-51] | 139
31 | KSRCRK [6mer-2-7] | 126
32 | KSLSRR [6mer-2-53] | 125
33 | KGRRRR [6mer-2-54] | 124
34 | RQFRKK [6mer-2-33] | 142
35 | RSQLRR [6mer-2-56] | 149
36 | RWYLKR [6mer-2-2] | 139
37 | RRFRKK [6mer-2-48] | 153
38 | RQFQRK [6mer-2-12] | 147

Row | Binder | Binding affinity [RU]
39 | RWISRK [6mer-2-35] | 148
40 | KVIRRK [6mer-2-27] | 128
41 | RQYQRR [6mer-2-11] | 121
42 | RSLTKK [6mer-2-45] | 121
43 | RSQRKR [6mer-2-29] | 142
44 | KSYQRK [6mer-2-31] | 121
45 | KSLQKK [6mer-2-8] | 135
46 | RRRLKK [6mer-2-1] | 131
47 | KGIQRK [6mer-2-24] | 141
48 | RGRQKK [6mer-2-14] | 153
49 | RSYYRR [6mer-2-4] | 125
50 | KVYSRK [6mer-2-3] | 148
51 | KLLSKR [6mer-2-42] | 126
52 | RLRCRK [6mer-2-49] | 154
53 | RWVRKK [6mer-2-23] | 148
54 | RQIRKK [6mer-2-22] | 124
55 | KVLSRK [6mer-2-28] | 142
56 | RWVSKR [6mer-2-5] | 124

target: acetylcholine receptor; assay: SPR, peptide at 10 uM over immobilized acetylcholine receptor

Row | Binder | Binding affinity (RU)
57 | KSYYRR [6mer-2-128] | 147
58 | KRYSRK [6mer-2-113] | 145
59 | KLQYRK [6mer-2-114] | 121
60 | RQFTKR [6mer-2-123] | 146
61 | KWFSRR [6mer-2-118] | 135
62 | KRYTRK [6mer-2-117] | 148
63 | KLYCKK [6mer-2-132] | 139
64 | KRRLKK [6mer-2-133] | 145
65 | KRVYRK [6mer-2-121] | 137
66 | RRQCRK [6mer-2-120] | 146
67 | RLYLRK [6mer-2-127] | 136
68 | KQQTKR [6mer-2-131] | 148
69 | RWFYKK [6mer-2-135] | 124
70 | KWLYRR [6mer-2-126] | 148
71 | RSISKK [6mer-2-119] | 139
72 | RVITKK [6mer-2-122] | 125
73 | KLQRKK [6mer-2-116] | 126
74 | KWQYRK [6mer-2-115] | 144
75 | KVQLRR [6mer-2-125] | 142
76 | KSVLRK [6mer-2-129] | 139
77 | KWQLKR [6mer-2-124] | 126
78 | RLFQRK [6mer-2-134] | 148
79 | RGVCRR [6mer-2-130] | 122
